The text below walks through data of patent US11814435B2, “Therapeutic antibodies and their uses” (PFIZER INC., priority 2015, dated 2023).

The test system of assay [1] is Molp8 LucGFP orthotopic myeloma. Nature of the assay: Anti-BCMA/CD3 bispecific in combination with standard of care in orthotopic Molp8 tumor model. Format: in vivo, NSG mice. To be noted: FIG. 14; bispecific 0.3 mg/kg; bortezomib 1 mg/kg i.p.; lenalidomide 50 mg/kg oral gavage. The procedure:
In vivo efficacy study of BCMA bispecifics was performed with Molp8, expressing luciferase and GFP, orthotopic model. Two million Molp8 LucGFP cells were injected intravenously through the tail vein into 6-8 weeks old female NSG animals. Intraperitoneal injection of D-luciferin (Regis Technologies, Morton Grove, Ill.) (200 uL per animal at 15 mg/mL), followed by anesthesia with isofluorane and subsequent whole body bioluminescence imaging (BLI) enabled monitoring of tumor burden. Bioluminescent signals emitted by the interaction between luciferase expressed by the tumor cells and luciferin were captured by imaging using an IVIS Spectrum CT (Perkin Elmer, MA) and quantified as total flux (photons/sec) using Living Image 4.4 (Caliper Life Sciences, Alameda, Calif.). The animals were injected through bolus tail vein on day 7 with 20 million expanded T cells as described in Example 18. Two days post T cell injection, mice were imaged and randomized into five groups of seven mice with an average of 17E6 total flux/group: 1) Combo_Rd4_0.6 nM_C29, 0.3 mg/kg, 2) Combo_Rd4_0.6 nM_C29, 0.3 mg/kg and 1 mg/kg bortezomib, 3) Combo_Rd4_0.6 nM_C29, 0.3 mg/kg and 50 mg/kg lenalidomide, 4) 1 mg/kg bortezomib and 50 mg/kg lenalidomide and 5) vehicle. […]

A further assay concerns OPM2 cells. The experiment in a line: Anti-BCMA/CD3 bispecific with lenalidomide, carfilzomib or doxorubicin, T cell killing of OPM2 (flow cytometry live cells). The format is cell-based. The conditions noted are these: FIGS. 15A-15C; 1.56 nM carfilzomib, 195 nM lenalidomide, 6.25 nM doxorubicin; three days. The procedure:
OPM2 and CD3+ T cells were first incubated with the standard of care for two hours at 37°. 1.56 nM carfilzomib and 6.25 nM doxorubicin were diluted in PBS containing 0.02% DMSO. Lenalidomide was diluted in PBS containing 0.1% DMSO at 195 nM. Cells were treated with 10-fold serially diluted bispecific antibody.
In general terms: A flow cytometer gives signals particle by particle.

The target of another assay is hCD3 (human CD3) (Homo sapiens, UniProt P07766). The experiment in a line: Kinetics and affinity of hCD3/human IgG interactions by SPR (Bio-Rad Proteon XPR36). The conditions noted are these: 37° C. Format: binding. The procedure: All experiments were performed on a Bio-Rad Proteon XPR36 surface Plasmon resonance biosensor (Bio-Rad, Hercules, Calif.). An array of anti-CD3 antibodies was prepared using an amine-coupling method on a Bio-Rad GLC Sensor Chip similar to that described in Abdiche, et al., Anal. Biochem. 411, 139-151 (2011). The analysis temperature for the immobilization was 25° C. and the running buffer was HBS-T+(10 mM HEPES, 150 mM NaCl, 0.05% Tween-20, pH 7.4). Channels were activated in the analyte (horizontal) direction by injecting a mixture of 1 mM ECD and 0.25 mM NHS for 3 minutes at a flow rate of 30 μL/min. IgGs were immobilized on the activated spots by injecting them in the ligand (vertical) direction at 20 μg/mL in 10 mM Acetate pH 4.5 buffer for 1.5 minutes at […]. The activated surfaces were blocked by injecting 1M ethanolamine, pH 8.5 in the analyte direction for 3 minutes at 30 μL/min.
hCD3 (human CD3), sequence (P07766 23-126 limits assumed): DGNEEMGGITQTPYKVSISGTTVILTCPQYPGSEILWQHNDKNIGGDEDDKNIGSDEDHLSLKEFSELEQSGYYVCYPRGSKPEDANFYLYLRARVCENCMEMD
hCD3 (human CD3), sequence (P04234 22-105 partner limits assumed): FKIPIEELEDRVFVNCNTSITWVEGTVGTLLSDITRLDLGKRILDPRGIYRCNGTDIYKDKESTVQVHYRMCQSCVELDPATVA
The analysis temperature for the hCD3 binding analysis was 37° C. or 25° C. in a running buffer of HBS-T+, supplemented with 1 mg/mL BSA. A kinetic titration method was employed for the interaction analysis as described in Abdiche, et al. The hCD3 (human CD3) analyte was injected in the analyte direction using a series of injections from low to high concentration. The concentrations used were 0.08 nM, 0.4 nM, 2 nM, 10 nM and 50 nM (a 5-membered series, with a 5-fold dilution factor and top concentration of 50 nM). The association time for a given analyte dilution was two minutes. Immediately after the 50 nM hCD3 injection, dissociation was monitored for 2 hours. Prior to the hCD3 analyte injections, buffer was injected 5 times using the same association and dissociation times at the hCD3 analyte cycles to prepare a buffer blank sensorgram for double-referencing purposes (double referencing as described in Myszka, J. Mol. Recognit. 12, 279-284 (1999).
The sensorgrams were double-referenced and fit to a 1:1 Langmuir with mass transport kinetic titration model in BIAevaluation Software version 4.1.1 (GE Lifesciences, Piscataway, N.J.).
A general note: Surface plasmon resonance follows binding to a sensor surface in real time, without labels.

A further assay relates to cynomolgus PBMC. Nature of the assay: PBMC T cell proliferation by 3H-thymidine incorporation. Format: cell-based. To be noted: FIG. 10A/10B, 2 day cultures. The procedure: (§1) Human anti-CD3 antibodies were cloned from immunized mouse, expressed as mouse IgG1, and purified by Protein A affinity beads. Human/Cynomolgus peripheral blood mononuclear cells (hu/cyPBMC) were prepared by Ficoll (Density: 1.083 g/mL, GE) density gradient centrifugation from blood filters obtained from local blood banks. Erythrocytes were removed by incubating in LCK buffer (155 mM NH4Cl, 10 mM KHCO3, […]; Gibco) for 3 minutes at room temperature. Cells were centrifuged for 5 min at 600 g. The supernatant containing the lysed erythrocytes was discarded, and the PBMC were washed twice in 50 ml 1×PBS/1% BSA/1 mM EDTA. The pelleted cells were adjusted to 10^7 cells per ml in culture media, X-VIVO-15, serum free media (Lonza,), and the PBMC were seeded as 10^6 (100 ul) per-well to round bottom 96 well tissue culture plates. Selected Abs are 10× serial diluted from 1000 ng to 1 ng per mL for mixing with human PBMC and 5× serial diluted from 5000 ng to 200 ng per mL for mixing with cynomolgus PBMC. For analysis of PBMC T cell proliferation by ^3H-thymidine incorporation, 2 day cultures were performed in triplicate. During the final 16 h of culture ^3H-thymidine ([…]) was added, and incorporation was measured. Cells are harvested and lysed, DNA is captured onto glass-fiber filter. Radioactivity (cpm) as measure for proliferation by counting on a scintillation beta-counter.
On the technique in general: Uptake of a labelled nucleoside into DNA is a usual measure of proliferation.

For the next assay, the system named is human PBMC. The assay is described as above. Format: cell-based. To be noted: FIG. 10A/10B, 2 day cultures. The procedure: as §1
The next assay deals with bsc_hCD3ed (Homo sapiens, UniProt P07766). The experiment in a line: Biacore kinetics anti-xCD3e ab/bsc_hCD3ed. The format is binding. The conditions noted are these: data fitted from 80 nM-0.64 nM.
bsc_hCD3ed, sequence (P07766 23-126 limits assumed): as the sequence (P07766 23-126 limits assumed) above
bsc_hCD3ed, sequence (P04234 22-105 partner limits assumed): as the sequence (P04234 22-105 partner limits assumed) above

In the case of `CC(C)C[C@H](NC(=O)[C@H](Cc1ccccc1)NC(=O)c1cnccn1)B(O)O` [bortezomib, [(1R)-3-methyl-1-[[(2S)-1-oxo-3-phenyl-2-[(pyrazinylcarbonyl)amino]propy-l]amino]butyl]boronic acid], the “effect of combining on the efficacy of the anti-BCMA/CD3 bispecific antibody” value in assay [1] is listed as “did not have a negative effect”.
`CC(C)C[C@H](NC(=O)[C@H](CCc1ccccc1)NC(=O)CN1CCOCC1)C(=O)N[C@@H](Cc1ccccc1)C(=O)N[C@@H](CC(C)C)C(=O)[C@@]1(C)CO1` [carfilzomib]: in the assay with OPM2 cells, the “effect on the function of Combo_Rd4_0.6 nM_C29-CD3 bispecific antibody on OPM2 cells” value is listed as “do not have a negative effect”.
`COc1cccc2c1C(=O)c1c(O)c3c(c(O)c1C2=O)C[C@@](O)(C(=O)CO)C[C@@H]3O[C@H]1C[C@H](N)[C@H](O)[C@H](C)O1` [doxorubicin]: in the assay with OPM2 cells, the “effect on the function of Combo_Rd4_0.6 nM_C29-CD3 bispecific antibody on OPM2 cells” value is “do not have a negative effect”.

B1: h2B4-VH-yads VL_TK: anti-CD3 antibody (antibody, V domains shown)
VH: EVQLVESGGGLVQPGGSLRLSCAASGFTFSDYYMTWVRQAPGKGLEWVAFIRNRARGYTSDYADSVKGRFTISRDNAKNSLYLQMNSLRAEDTAVYYCARDRPSYYVLDYWGQGTTVTVSS
VL: DIVMTQSPDSLAVSLGERATINCKSSQSLFNVRSRKNYLAWYQQKPGQPPKLLISWASTRESGVPDRFSGSGSGTDFTLTISSLQAEDVAVYYCKQSYDLFTFGSGTKLEIK
For the molecule B1, in the assay with hCD3 (human CD3), the “ka huCD3ed @37° C.” value stood at 240000 M⁻¹ s⁻¹ and the “kd huCD3ed @37° C.” value came out at 0.021 s⁻¹.

B2: h2B4-VH-yaes VL_TK: anti-CD3 antibody (antibody, V domains shown)
VH: EVQLVESGGGLVQPGGSLRLSCAASGFTFSDYYMTWVRQAPGKGLEWVAFIRNRARGYTSDYAESVKGRFTISRDNAKNSLYLQMNSLRAEDTAVYYCARDRPSYYVLDYWGQGTTVTVSS
VL: DIVMTQSPDSLAVSLGERATINCKSSQSLFNVRSRKNYLAWYQQKPGQPPKLLISWASTRESGVPDRFSGSGSGTDFTLTISSLQAEDVAVYYCKQSYDLFTFGSGTKLEIK
With B2, in the assay with hCD3 (human CD3), the “ka huCD3ed @37° C.” value worked out at 230000 M⁻¹ s⁻¹ and the “kd huCD3ed @37° C.” value came out at 0.023 s⁻¹.

B3: h2B4-VH-yaps VL_TK: anti-CD3 antibody (antibody, V domains shown)
VH: EVQLVESGGGLVQPGGSLRLSCAASGFTFSDYYMTWVRQAPGKGLEWVAFIRNRARGYTSDYAPSVKGRFTISRDNAKNSLYLQMNSLRAEDTAVYYCARDRPSYYVLDYWGQGTTVTVSS
VL: DIVMTQSPDSLAVSLGERATINCKSSQSLFNVRSRKNYLAWYQQKPGQPPKLLISWASTRESGVPDRFSGSGSGTDFTLTISSLQAEDVAVYYCKQSYDLFTFGSGTKLEIK
Consider B3, for which, in the assay with hCD3 (human CD3), the “ka huCD3ed @37° C.” value amounted to 250000 M⁻¹ s⁻¹ and the “kd huCD3ed @37° C.” value came to 0.023 s⁻¹.

B4: 1A4: anti-CD3 antibody cloned from mouse hybridoma, expressed as mouse IgG1 (antibody, V domains shown)
VH: QVQLQQSGPDLVKPGASVEISCKASGYSFTTYYLHWVRQRPGQGLEWIGWIFPGSDNTKYNEKFKGKATLTADTSSSTAYMQLSSLTSEDSAVYFCARNRDYYFDYWGQGTTVTVSS
VL: DIVMSQSPSSLAVSAGEKVTMSCKSSQSLLNSRTRKNYLAWYQQKPGQSPKLLIYWASTRASGVPDRFTGSGSGTDFTLTISSVQAEDLAIYYCKQSFILRTFGGGTKLEIK
modifications: mouse IgG1 constant regions
With B4, the Thymidine incorporation result with cynomolgus PBMC and in the assay on human PBMC was “had Thymidine incorporation reading” each time.

B5: 1C10: anti-CD3 antibody cloned from mouse hybridoma, expressed as mouse IgG1 (antibody, V domains shown)
VH: QVQLQQPGSELVRPGASVILSCKASGYTFTSYWMHWVRQRPGQGLEWIGNIYSGGDTINYDEKFKNKAILTVDTSSSTAYMHLSSLTSEDSAVYYCTRDATSRYFFDYWGQGTTVTVSS
VL: DIVMSQSPSSLAVSAGEKVTMSCKSSQSLLNSRTRKNYLAWYQQKPGQSPKLLIYWASTRESGVPDRFTGSGSGTDFTLTIDSVQPEDLAVYYCTQSFILRTFGGGTKLEIK
modifications: mouse IgG1 constant regions
For B5, the ka with bsc_hCD3ed turned out to be 2.96E+05. The same molecule yielded a kd with bsc_hCD3ed of 2.37E−03. Moreover, the Thymidine incorporation result in the assay with cynomolgus PBMC and in the assay on human PBMC was “had Thymidine incorporation reading” each time.

B6: 7A3: anti-CD3 antibody cloned from mouse hybridoma, expressed as mouse IgG1 (antibody, V domains shown)
VH: EVQLQQSGAELVRPGALVKLSCKGSGFNIKDYYIHWVKQRPEQGLEWIGWIDPENGNNKYDPKFQGKASITADTSSNIAYLQLSSLTSEDTAVYYCARNDNYAFDYWGQGTTVTVSS
VL: DIVVSQSPSSLAVSAGEKVIMSCKSSQSLLNSRTRKNYLAWYQLKPGQSPKLLIYSASTRESGVPDRFTGSGSGTDFTLTISSVQTEDLAVYYCMQSFTLRTFGGGTKLEIK
modifications: mouse IgG1 constant regions
Regarding B6, the Thymidine incorporation result in the assay on cynomolgus PBMC and in the assay on human PBMC was “had Thymidine incorporation reading” in each case.

B7: 2B4: anti-CD3 antibody cloned from mouse hybridoma, expressed as mouse IgG1 (antibody, V domains shown)
VH: EVKLVESGGGLVQPGGSLRLSCATFGFTFTDYYMTWVRQPPGKALEWVAFIRNRARGYTSDHNASVKGRFTISRDNSQNILYLQMNTLRAEDSATYYCARDRPSYYVLDYWGQGTTVTVSS
VL: DIVMSQSPPSLAVSVGDKVTMSCTSSQSLFNSRSRKNYLAWYQQKSGQSPKLLISWASTRESGVPDRFTGSGSGTDFTLTISSVQAEDLAVYYCKQSYDLFTFGSGTKLEIK
modifications: mouse IgG1 constant regions
In the case of B7, in the assay with bsc_hCD3ed, the ka amounted to 3.74E+05 and the kd stood at 2.74E−03. In the assay with cynomolgus PBMC, the Thymidine incorporation entry is listed as “had Thymidine incorporation reading”. Moreover, the Thymidine incorporation entry with human PBMC is on record as “had Thymidine incorporation reading”.
